Test results taken from US20190030060A1.

Key:
[1] = target: Semaphorin 4D secreted by HNSCC cell lines into conditioned medium (cleaved form, ~120 KDa) (human) (UniProt Q92854); experiment: cell-based or functional assay
[2] = target: recombinant human Sema4D (sCD100) (Cat #310-29) (Peprotech, Rocky Hill, N.J.) (human) (UniProt Q92854); experiment: indirect ELISA, antigen coated on plate, standard curve with recombinant Sema4D, goat anti-mouse IgM-HRP

reduction in the MDSC population (CD33+ CD11b+ HLA-DR-/low) of myeloid cells cultured in HNSCC conditioned medium, flow cytometry, against isotype control mAb [1] [%]	detection limit [2] [ng/mL]	Substance
50	–	anti-Sema4D antibody (clone 30/CD100) (Cat #610670) (BD Biosciences PharMingen, San Diego, Calif.)
–	3.1	anti-human CD100 antibody (clone: 133-1C6; Novus Biologicals)
